Experimental data from the supplement of paper PMC9170038.

System: MS2 coat protein
Assay: apparent KD of MS2 coat protein; designed switch direction (-1 OFF switch, 1 ON switch): -1; higher = weaker reporter binding
Outline: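 The apparent KD reported per design is the median over clusters of curve fits to normalised cluster fluorescence. The RNA switches were transcribed on Illumina chips by stalled E. coli RNA polymerase. SNAP-549-labelled MS2 coat protein was titrated from 0.7 or 1.5 nM, doubling up to 3 µM, in Tris-HCl pH 7.5 buffer containing KCl, MgCl2, BSA, DTT, tRNA and Tween-20, with no input, 200 uM small-molecule ligand, or an oligonucleotide input.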

[1] = input ligand: microRNA oligo, concentration not stated
[2] = Eterna round: R95, input ligand: microRNA oligo, concentration not stated
[3] = Eterna round: R95, input ligand: FMN 200 uM
[4] = Eterna round: R95, input ligand: none

Sequence	apparent KD of MS2 coat protein (input ligand: FMN 200 uM)	apparent KD of MS2 coat protein [1]	apparent KD of MS2 coat protein (input ligand: none)	apparent KD of MS2 coat protein [2]	apparent KD of MS2 coat protein [3]	apparent KD of MS2 coat protein [4]
ACAUGAGGAUCACCCAUGUCCGGCUGGUCCGUCUCGGCUGUCGAGGAUAUAGCUUGGUGUCCGCGCUAGAAGGUGGGAGCUGGU [Aenatbe mod 69] (Eterna round: R96, puzzle: Exclusion NG 3)	99.7 nM	53.1 nM	96.6 nM	–	–	–
CCUCCACAUGAGGAUCACCCAUGUCAGGAUAUCGUGUGUGCGUUUUCGGUCUUUCGUGCGAGAAGGGACGUCUG (puzzle: Exclusion 1)	–	–	–	52.7 nM	–	–
AGGAAGCAAGGAUAUACGAGGAGAAGGUGUCGAUUUAAAGGACAUGAGGAUCACCCAUGUAGAAGGUGCGAGAA [JR_Exclu2_Sub048] (puzzle: Exclusion 2)	–	–	–	83.6 nM	110 nM	95.8 nM
ACAUGUCAUCGAGGAUAUUGCACACAUGAGGAUCACCCAUGUAUUCGGUUGCUCUUGCGUGAGUUCGAGAAGGCGAUGUACAUU [Ex NG2 #85] (Eterna round: R96, puzzle: Exclusion NG 2)	134 nM	215 nM	262 nM	–	–	–
CUAGAUCUUCGGAUCUAGGACAUGAGGAUCACCCAUGUCACGAGCAGAUCCUCAUGCAAGCUUUUUGCUCGUCUUAU [Sensor v3 - Turn-off variant 1 - 36] (puzzle: Sensor v3, turn-off variant 1)	–	–	–	17.4 nM	133 nM	70.1 nM
GAGUGCUGAGGAUAUACAUGAGGAUCACCCAUGUGCUUCAGCUAGGAGACUAGCAUCGGUAGAAGGCAGUACUC [Mod of lroppy 18 - Jieux - Exclusion 3] (Eterna round: R97, puzzle: Exclusion 3)	60.1 nM	–	17.2 nM	–	–	–
CAUUAGCGGGCAGGAUAUCCUAAUAAGCAGAAUGGAGAAGGGCCAAGGUCAACUUGAGGAUCACCCAAGUCAUAAAGUUGGCCC [Mutated MS2 EX1.29] (Eterna round: R96, puzzle: Exclusion NG 1)	10.9 nM	11.6 nM	13.9 nM	–	–	–
AGUUGUUGUUUCCGUUCUUACAUGAGGAUCACCCAUGUUUCUUGUCGUGCUCGCGUUGCUCGUCAGACUUCCUGUUG [salish99_TOv1_r3_066] (puzzle: Sensor v3, turn-off variant 1)	–	–	–	93.1 nM	77.3 nM	121 nM
UGUACUAUGCGAGCUGACUUGCGUAGUGCAGCAGGUGUAACAUGAGGAUCACCCAUGUCCUCAUUUGCUCGUCUUAU [SL-sv3-2.05 JL mod] (puzzle: Sensor v3, turn-off variant 2)	–	–	–	297 nM	347 nM	414 nM
CCUCGACAUGAGGAUCACCCAUGUAAGGAUAUAAGUGCAGAGGGCGCGUAAUUAAUCGUGAGAAGGUACAACAC (Eterna round: R97, puzzle: Exclusion 1)	32.1 nM	–	31.1 nM	–	–	–
GCUGAUCGGCUAGGAUAUACAUUGAUCCUAGGAGGCUAAGCCUCAAAGACAUGAGGAUCACCCAUGUAGAAGGAGCAGCAGUAA [Armaonve] (Eterna round: R96, puzzle: Exclusion NG 2)	103 nM	23.3 nM	39.4 nM	–	–	–
CCGUUCCGUGUAGGAUAUUGGCCCACCACGGGCCGAGAAGGACAUGAGGAUCACCCAUGUAUGCUAUUAUCGCGCGUGGCGCCC [Design 100] (Eterna round: R96, puzzle: Exclusion NG 1)	148 nM	14.8 nM	24.2 nM	–	–	–
ACCUCACAUGAGGAUCACCCAUGUCAGGAUAUCUAUUAUUGCAGCAAUCCUGUCGCUGAGAGAAGGGACAUUAA [EX1 #27] (Eterna round: R97, puzzle: Exclusion 1)	32.2 nM	–	33 nM	–	–	–
GCAGGUUAAGUAAGGAUAUACCUCUGGAAACAGAGGUAGAAGGUACAUGAGGAUCACCCAUGUUUCUCUUUUGC [Mod of Eli 5 - Jieux - Brourd's mod of Exclusion 4] (Eterna round: R97, puzzle: Brourd's mod of Exclusion 4)	24.8 nM	–	16 nM	–	–	–
AAGUAGUGUGUGAGGAUAUUGGUGGAAUGACACAUUAAGAAGGCACAUGAGGAUCACCCAUGUGGGUAAACACG [Brourd's EX4 #22] (Eterna round: R97, puzzle: Brourd's mod of Exclusion 4)	90 nM	–	33.1 nM	–	–	–
GCACUCUGCUGGCAGUCGGCUUGUCUUAGAAGGAUAGAUACAUGAGGAUCACCCAUGUUUCGGGUGUCAAUUCUAGC [JR_Sensorv2_tov2_Sub1308] (Eterna round: R96, puzzle: Sensor v2, turn-off variant 2)	43.9 nM	34.5 nM	42.6 nM	–	–	–
ACCUCACAUGAGGAUCACCCAUGUCAGGAUAUCUAAUGUAGUCGCGUUCCCGACGCUAAGAGAAGGGACGUUGA [EX1 #36] (Eterna round: R97, puzzle: Exclusion 1)	15.8 nM	–	15 nM	–	–	–
UGAUGUUGAUAGGAUAUACAGGUAGGAGUAGGAGUAGAAGGAUCUACAUGAGGAUCACCCAUGUAGGAGUGAGA [JR_E6_Sub001] (puzzle: Exclusion 6)	–	–	–	12.5 nM	21.7 nM	16.4 nM
AACAUGAGGAUCACCCAUGUGAACCUCCUAAAAUACGACCGGUAGGAUAUACGAAAGAGCCGGAAGUAGAAGGACCGGUUAAAA [Esusale] (Eterna round: R96, puzzle: Exclusion NG 3)	460 nM	96.1 nM	158 nM	–	–	–
AAAGGGCAAGCAUGAUCCCACAUGAGGAUCACCCAUGUGUUCGUCUUAUAGGCUGCUGAGGCUUUUGCCUCGGUGGC [LRO Sensor-off var1-04 loose mod of D91 from Mat747] (Eterna round: R97, puzzle: Sensor, turn-off variant 1)	484 nM	–	567 nM	–	–	–
CUGAGCAGACGGAGAUCCAACAUGAGGAUCACCCAUGUCUCAAAAGCUUUUUGCUUAAACGUCUUAUCUCUGUUCAC [Esquitian 5] (Eterna round: R97, puzzle: Sensor, turn-off variant 1)	35.7 nM	–	33.8 nM	–	–	–
GAAAACGCUGAGGAUAUUUCUGAUCAAAGCAGCAAAGAAGGCAGCACAUGAGGAUCACCCAUGUGGUCUUCAAU [Mat - Exclusion 6 - JL Mod - D11] (Eterna round: R97, puzzle: Exclusion 6)	445 nM	–	33 nM	–	–	–
AGAUCCUGAGUCAGGAUAUAGAGGCGGUAGCCUGGCUAGAAGGGACAUGAGGAUCACCCAUGUGGGUUCGAGCC [Isonus] (puzzle: Brourd's mod of Exclusion 4)	–	–	–	16.7 nM	–	–
CCACGACAUGAGGAUCACCCAUGUGAGGAUAUGGCCUGAAAAGCGUGAGCAGUUUUUAUCAGAAGGCGCGUGGG [salish99_ex1_r4_064_4A's4U's] (Eterna round: R97, puzzle: Exclusion 1)	63.6 nM	–	31.5 nM	–	–	–
GGUGGACAUGAGGAUCACCCAUGUGAGGAUAUCGGCCGGCUCGUGGUGGCUGGCUUCUCGAGAAGGCGCAUAGU [Exclusion 1 V75] (puzzle: Exclusion 1)	–	–	–	50.6 nM	–	–
